Laboratory results: the supplement of paper PMC10126150
± gives the standard deviation of the averaged measurements.

tested on: ATP; assay: switch fluorescence ratio, 500 uM ATP over buffer (Cy3 cluster intensity, sum of 5 cycles each) (fold (ratio)); higher = stronger signal-on switching upon ATP binding; sequences stand for … in TCGTCGGCAGCGTCAGATGTGTATAAGAGACAGTTTTTTTTTTTTTTTTTTTTTTTTT…TC; settings: aptamer strand: ATP DNA aptamer (quencher-CACCTGGGGGAGTATTGCGGAGGAAGG + anchor), 100 nM annealed; ATP concentration: 500 uM
Method in brief: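 Cy3-labelled switching-strand clusters on a modified Illumina MiSeq flow-cell were annealed to 100 nM quencher-labelled ATP aptamer and imaged first in selection buffer, then after 15 min with 500 uM ATP at 22 °C. NaOH stripping and re-annealing separated each of five buffer/ATP cycles, and clusters outside 100-1000 RFU were excluded. The fluorescence ratio sums target-cycle Cy3 intensity over buffer-cycle Cy3 intensity per cluster and averages it per switch-domain sequence.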
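Also: ATP exposure 15 min at 22 °C before imaging.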

Sequence	switch fluorescence ratio
AGCGGCCTG	1.01 ± 0.056
AGCAAGGGGA	1.07 ± 0.058
AAGAGAGGTG	1.07 ± 0.014
GGTTATGGTA	0.9715 ± 0.0063
CATTGTGTAT	0.975 ± 0.029
GCTGTGGGTA	0.989 ± 0.01
GTTTTCGCGA	1.06 ± 0.04
TAAGGGATGT	0.995 ± 0.049
TCGAGCCGAA	1.04 ± 0.019
CAATCTGGGA	0.978 ± 0.019
GAGTAAGCAA	1.64 ± 0.084
TTAAGGTCCG	0.987 ± 0.047
CGAAGATCGG	1 ± 0.023
GCGGTTCGAA	0.997 ± 0.084
TTCGTGCTTC	0.963 ± 0.024
CTGTTTGTAT	0.978 ± 0.02
TGGGTAGGAA	1.0335 ± 0.00064
TGTTGGTATA	1.01 ± 0.012
TTAGGGAGTC	0.992 ± 0.037
GGATTTGGTG	1 ± 0.012
GGGTTTTTCC	1.1 ± 0.18
ATAGGGACAC	1.07 ± 0.033

Sequence	switch fluorescence ratio
AAATGCTGGG	0.99 ± 0.031
GGGTGGGGTA	0.971 ± 0.036
CACATGCTGT	0.995 ± 0.038
CGGCGAATCC	1.033 ± 0.0088
TCGGGTATGT	0.977 ± 0.029
CCCGGGTAGG	1.041 ± 0.0026
GTGCGGGGCG	1.02 ± 0.067
TTTGTGATAA	0.969 ± 0.057
AAGCGGGTTT	0.96 ± 0.03
TTTCGGAGCC	1.16 ± 0.24
AATGTAGACG	0.997 ± 0.13
CTGAGGAAGT	0.9908 ± 0.0088
TAAAAGATTT	1.01 ± 0.037
CACTGGAGAG	1.039 ± 0.0048
ATTTGGAAAG	0.999 ± 0.021
AGGAGTACTT	1.02 ± 0.019
TTTTTAGTTG	1.12 ± 0.41
TCTGTATTTG	0.981 ± 0.028
TTGGGAGAAT	1.02 ± 0.09
GGGCTTTATA	1.02 ± 0.014
CCTCTGGCGC	3.9 ± 0.3
GGTGAAAAAG	1.01 ± 0.011

Sequence	switch fluorescence ratio
TTTAAATAT	1.03 ± 0.086
GTATGTACTG	1.04 ± 0.04
TGGGGAACCT	0.96 ± 0.032
AGACACGGGG	1.06 ± 0.02
TTTGGGATT	0.999 ± 0.036
CAATTAGCAT	1.03 ± 0.017
TTAGAACATC	1.009 ± 0.0053
TCATTTAAGA	0.954 ± 0.014
AGCAGTGTGC	0.9981 ± 0.0027
GTTACGTTAT	1.13 ± 0.078
ACGCGTGCGT	0.988 ± 0.016
CTAGCGAGGG	1.01 ± 0.014
GGGGAAGGTT	0.991 ± 0.037
GGTGGCTTAA	0.96 ± 0.024
ATGTATGTTG	0.982 ± 0.072
GTATTGCCAG	0.995 ± 0.029
GGAACGTAGG	1.016 ± 0.0083
GGGTAGGGAA	0.998 ± 0.016
TTCCTTGTTA	0.9973 ± 0.0052
AGGCCTCGCA	1.03 ± 0.039
TATAATATCG	0.961 ± 0.015
TCAATCTGTG	1.01 ± 0.066

Sequence	switch fluorescence ratio
AGGGAGAAAC	0.984 ± 0.028
AGGAGGAGGC	0.789 ± 0.23
TTTGCGACTG	1.03 ± 0.015
CACAGGCCAA	1.2 ± 0.029
ATTTTTGGAG	0.9792 ± 0.0053
GCTCGAAAGA	1.008 ± 0.0024
TGGCCCGGGA	0.9878 ± 0.0035
GAGTTTTGGT	1.03 ± 0.019
GATTGCGCAT	1 ± 0.03
CCTTATTGAA	0.979 ± 0.021
TCCCGGGTTA	1.01 ± 0.013
CAGGATGCGT	0.9611 ± 0.0076
TTGTCCCTTT	0.9848 ± 0.0074
GGGAGTGTTT	1 ± 0.026
TAAATGCGGG	0.975 ± 0.039
CGCGTTATGT	1.03 ± 0.0081
GCCCCGGGGT	1.03 ± 0.056
AAAATGCGGG	1.01 ± 0.036
TTTGCTATAG	1.23 ± 0.28
